Experimental data as given in paper PMC5662892.

Tested on: ORC-Qdot705 (Orc1-6) (budding yeast)
Experiment: single-molecule TIRFM
Settings: RPA: 20 mM Tris pH 7.5, 50 mM NaCl, 2 mM EDTA, 0.2 mg/ml BSA, ORC: 25 mM HEPES pH 7.6, 12 mM MgOAc, 50 uM ZnOAc, 1 mM DTT, 225 mM KGlut, 3 mM ATP

Substance: lambda-ARS1
- binding signal (% of binding positions at ARS1 site): 12.8
